Test results reported in patent US20240400698A1, “ANTI-CHEMOKIN LIKE RECEPTOR 1 ANTIBODIES AND THEIR THERAPEUTIC APPLICATIONS” (OSE IMMUNOTHERAPEUTICS, priority 2018, published 2024).

Test system: human macrophages M1 or M2
Assay: Human monocyte differentiation and polarization, CD200R by FACS and cytokine secretion by ELISA, FIG. 16
Format: cell-based
Details: human cells, 2 μg/ml
Procedure: FIG. 16. Study of the inflammatory cytokine secretion by human macrophages during CMKLR1 activation. After differentiation of human monocytes, cells were incubated in presence of different isotype controls (mIgG4; hIgG4 or hIgG1 at […]); C7 commercial anti-CMKLR1 antibody (2 μg/ml); 2G4 or 2G1 antibodies (2 μg/ml), or other commercial anti-CMKLR1 antibodies (H6 (2 μg/ml), BZ332 (2 μg/ml) or 84939 (2 μg/ml), C15 peptides (10 nM), or RvE1 (10 ng/ml). A. Expression of the CD200R marker measured by FACS. B. IL10 cytokine secretion by M2 cells. C. CCL17 cytokine secretion by M2 cells. D. represents IL12 cytokine secretion by M1 cells. Secretion of IL10, CCL17 and IL12p40 were assessed by ELISA.
Monocytes were collected from PBMC of buffy coat of healthy volunteers and isolated by magnetic separation or by elutriation. Then, monocytes were cultured with different cocktails of cytokines to generate differentiated unpolarized macrophages or polarized macrophages. This protocol allowed to generate polarized differentiated macrophages in order to have pro-(M1) or anti-(M2) inflammatory macrophages in different wells. Monocytes were plated at 0.5·10^6 cells/mL in complete RPMI (RPMI with 10% FBS, 1% glutamine, 1% antibiotics) and 500 μL of the cell suspension was plated per well in a 24-well plate. 100 ng/ml of M-CSF was added with medium for differentiation of the cells. Cells were incubated 5 days and medium was replaced with fresh medium complemented with 100 ng/ml of M-CSF at day 3. For the polarization phases, solution of LPS-IFNg at 100 ng/ml of LPS and 20 ng/ml of IFNg complemented with isotype controls (mIgG1 or hIgG4) (2 μg/ml) or anti-CMKLR1 antibodies (2 μg/ml) (2G1 or 2G4, H6, BZ332 or 84939) or with C15 peptide (10 nM) or RvE1 (10 ng/ml) during 3 days to generate M1 macrophages. M1-IFNg macrophages could also be generated by adding only IFNg (20 ng/ml) in culture medium. […]
Cytokines secretion was detected by ELISA according to the BD manufacturer instructions. […] TMB supplied by BD Bioscience was used as substrate and colorimetric reaction was read with TECAN.

B1: 2G1: chimeric anti-CMKLR1 antibody, murine variable regions (SEQ ID No: 10 and 17), human IgG1 constant regions; VH-CDR3 variant LI (antibody, V domains shown)
VH: METDTLLLWVLLLWVPGSTGDEVQLVASGGGLVQPGGSLKLSCAASGFTFSSYGMSWVRQTPDRRLELVATINRYGGSTYYPDSVKGRFTISRDNAKNTLYLQMSSLKSEDTAMYYCPRLIYYGNEGDSWGQGTTLTVSS
VL: METDTLLLWVLLLWVPGSTGDQIVLTQSPAIMSASPGEKVTMTCSASSSVSFMHWYQQKSGTSPKRWIYDTTKLTSGVPARFSGSGSGTFYSLTISSMEAEDAATYYCQQWNSKPPLTFGPGTKLELKR
modifications: human IgG1 constant regions
notes: VH-CDR3 variant LI
- CCL17 secretion by M2 type macrophages: able to induce
- IL10 secretion by M2 type macrophages: able to induce
- secretion of the IL12p40 cytokine by M1 type macrophages: able to decrease the secretion
